Reference: patent US20250326814A1 (OPKO BIOLOGICS, published 2025)
Non-standard residues stand in square brackets, D forms with d. No end group written: not given here. *: point of attachment. X2 = Eicosanedioic‑γGlu‑(AEEA)2‑Lys(Ac)‑Gly, CC(=O)NCCCC[C@H](NC(=O)COCCOCCNC(=O)COCCOCCNC(=O)CC[C@H](NC(=O)CCCCCCCCCCCCCCCCCCC(=O)O)C(=O)O)C(=O)NCC(=O)*; Aib = CC(C)(N)C(=O)O

Legend:
Assay in all cases: cell-based or functional assay
[1] = target: glucagon-like peptide-1 receptor (GLP-1R)
[2] = target: glucagon receptor (GCGR)
[3] = target: glucagon-like peptide-1 receptor (GLP-1R); remark: listed apart in the source
[4] = target: glucagon receptor (GCGR); remark: listed apart in the source
[5] = target: glucagon-like peptide-1 receptor (GLP-1R); remark: listed apart in the source
[6] = target: glucagon-like peptide-1 receptor (GLP-1R); remark: listed apart in the source
[7] = target: glucagon receptor (GCGR); remark: listed apart in the source

| Binder | % EC50 compare to KPI (GLP1) [3] | Activity fold reduction compared to OPK-88003 KPI (GLP1) [3] | EC50 [nM] GLP1, CBA potency assay [3] | % EC50 compare to KPI (GCGR) [4] | Activity fold reduction compared to OPK-88003 KPI (GCGR) [4] | EC50 [nM] GCGR, CBA potency assay [4] | EC50 (nM), GLP-1 activity [5] | further results |
| --- | --- | --- | --- | --- | --- | --- | --- | --- |
| HXQGTFTSDYSKYLDSKKAQEFVQWLLNXGRNRNNIACC (Aib at positions 2 and 29; one Eicosanedioic-gGlu-Glu-AEEA-AEEA-AEEA-Lys(Ac-)-Gly-OH binder on Cys38 (Formula XXII, SEQ ID NO: 47) or on Cys39 (Formula XXIII, SEQ ID NO: 48); C-terminal amide (backbone C^38C^39-NH2)) | 60% | 1.65 fold | 0.21 nM | 38% | 2.65 fold | 1.6 nM | 0.21 nM | % EC50 compare to KPI (GLP1), with HSA added (FA-conjugate + HSA) [1]: 8.9%; % EC50 compare to KPI (GLP1), without HSA [1]: 100%; Activity fold reduction compared to OPK-88003 KPI (GLP1), with HSA added (FA-conjugate + HSA) [1]: 11.2 fold; EC50 [nM] GLP1, CBA potency assay, with HSA added (FA-conjugate + HSA) [1]: 2.27 nM; EC50 [nM] GLP1, CBA potency assay, without HSA [1]: 0.2 nM; % EC50 compare to KPI (GCGR), with HSA added (FA-conjugate + HSA) [2]: 2.6%; % EC50 compare to KPI (GCGR), without HSA [2]: 45%; Activity fold reduction compared to OPK-88003 KPI (GCGR), with HSA added (FA-conjugate + HSA) [2]: 38.6 fold; Activity fold reduction compared to OPK-88003 KPI (GCGR), without HSA [2]: 2.2 fold; EC50 [nM] GCGR, CBA potency assay, with HSA added (FA-conjugate + HSA) [2]: 52.9 nM; EC50 [nM] GCGR, CBA potency assay, without HSA [2]: 3.04 nM |
| HXQGTFTSDYSKYLDSKKAQEFVQWLLNXGRNRNNIAC (HELM PEPTIDE1{H.[Aib].Q.G.T.F.T.S.D.Y.S.K.Y.L.D.S.K.K.A.Q.E.F.V.Q.W.L.L.N.[Aib].G.R.N.R.N.N.I.A.C.[am]}$$$$V2.0; N-terminus assumed; SMILES CC[C@H](C)[C@H](NC(=O)[C@H](CC(N)=O)NC(=O)[C@H](CC(N)=O)NC(=O)[C@H](CCCNC(=N)N)NC(=O)[C@H](CC(N)=O)NC(=O)[C@H](CCCNC(=N)N)NC(=O)CNC(=O)C(C)(C)NC(=O)[C@H](CC(N)=O)NC(=O)[C@H](CC(C)C)NC(=O)[C@H](CC(C)C)NC(=O)[C@H](Cc1c[nH]c2ccccc12)NC(=O)[C@H](CCC(N)=O)NC(=O)[C@@H](NC(=O)[C@H](Cc1ccccc1)NC(=O)[C@H](CCC(=O)O)NC(=O)[C@H](CCC(N)=O)NC(=O)[C@H](C)NC(=O)[C@H](CCCCN)NC(=O)[C@H](CCCCN)NC(=O)[C@H](CO)NC(=O)[C@H](CC(=O)O)NC(=O)[C@H](CC(C)C)NC(=O)[C@H](Cc1ccc(O)cc1)NC(=O)[C@H](CCCCN)NC(=O)[C@H](CO)NC(=O)[C@H](Cc1ccc(O)cc1)NC(=O)[C@H](CC(=O)O)NC(=O)[C@H](CO)NC(=O)[C@@H](NC(=O)[C@H](Cc1ccccc1)NC(=O)[C@@H](NC(=O)CNC(=O)[C@H](CCC(N)=O)NC(=O)C(C)(C)NC(=O)[C@@H](N)Cc1c[nH]cn1)[C@@H](C)O)[C@@H](C)O)C(C)C)C(=O)N[C@@H](C)C(=O)N[C@@H](CS)C(N)=O) [MOD-604 KPI (mutated OXM analog of any one of SEQ ID NOs: 5 to 7)] | 45% | 2.2 fold | 0.282 nM | 72% | 1.4 fold | 0.83 nM | 0.13 nM | – |
| H[Aib]QGTFTSDYSKYLDSKKAQEFVQWLLN[Aib]GRNRNNIAC(X2)-NH2 [OPK-88604 (modified OXM of Formula XIV)] | – | – | – | – | – | – | 0.09 nM | EC50 (nM) GLP-1R, GLP-1 activity in vitro [6]: 0.0159 nM; EC50 (nM) GCGR, glucagon activity in vitro [7]: 0.164 nM |
| H[Aib]QGTFTSDYSKYLDSKKAQEFVQWLLN[Aib]GRNRNNIAC-NH2 (not fully specified (residue 38)) [Variant 2 (Formula XV)] | – | – | – | – | – | – | 0.1 nM | – |
| H[Aib]QGTFTSDYSKYLDSKKAQEFVQWLLN[Aib]GRNRNNIAC(Eicosanedioic‑γGlu‑Glu‑(AEEA)3‑Lys(Ac)‑Gly)-NH2 [Variant 3 (Formula XVI)] | – | – | – | – | – | – | 0.15 nM | – |
